According to patent US20120295811, “APTAMERS DIRECTED AGAINST THE MATRIX PROTEIN-1 OF TYPE A INFLUENZA VIRUSES AND USES […]” (published 2012):

Biological target: Matrix protein-1 (M1) (Influenza A virus) (UniProt B4URD8)
Conditions: low-density aptamer microarray, 50x dilution

With tRNA the binding signal (fluorescence units) was -55.
